Assay results published in paper PMC5773207.
Values joined by “and” are separate entries in the source; they are usually repeats but may differ in a detail not shown here. Equal entries are not always repeated.

Target: Nogo-B receptor construct NgBR(79–293) (human) (UniProt Q96E22)
Experiment: SEC; size exclusion (Superdex 200 10/300 GL) in-line with synchrotron SAXS; 20 mg/mL NgBR(79-293), 20 mM HEPES pH 7.5, 150 mM NaCl, 5% glycerol, 1 mM TCEP, 25°C

In the case of “Nogo-B receptor construct NgBR(79–293) (from UniProt Q96E22 79-293) (domain or fragment)”, the stoichiometry N is reported as 2 and 4.
